Tests used:
[1] = target: T1, AMA1 (apical membrane antigen 1) domains I+II (Plasmodium falciparum 3D7, UniProt Q7KQK5); experiment: crystal structure; AMA1 domains I+II and 1F9 Fab mixed (Fab in slight excess); 20 mM MES pH 6.0, 10 mM MnCl2, 6% PEG 3350, hanging drops; two crystal forms; conditions: both partners purified
T1 construct: also called AMA1 domains I+II

[2] = target: T2, Full-length 3D7 AMA1 ectodomain (Plasmodium falciparum 3D7, UniProt Q7KQK5); experiment: ELISA; competition ELISA: 100 ul of 0.3 ug/ml full-length AMA1 ectodomain immobilised on plastic; dilutions of human plasma added, followed by 10 ul of 3.0 ug/ml mAb; peroxidase-conjugated anti-mouse antibodies; conditions: both partners purified
T2 construct: also called recombinant full-length 3D7 AMA1 ectodomain; full-length recombinant AMA1

[3] = target: T3, 3D7 AMA1 domain I expressed on M13 phage (Plasmodium falciparum 3D7, UniProt Q7KQK5); experiment: ELISA; conditions: one partner purified
T3 construct: also called 3D7 domain I; domain I AMA1

B1: 1F9 Fab fragment (Fab, V domains shown)
VH: EVQLQQSGAELLRPGASVKLSCIVSGFKIKDTSMHWVKQRPEQGLEWIGRIDPANDNSEYDPKFQGKATITADTSSNTAYLQLSSLTSEDTAVYYCTLSHFWGQGTTLTVSS
VL: SIVMTQTPKFLPVSAGDRVTIICKASQSVSNDVVWYQQKPGQSPKLLIYYASIRYTGVPDRFTGSGYGTDFTFTISTVQVEDLAVYFCQQGFSSPRTFGGGTKLEIN
notes: also called Fab 1F9
binding result [1]: binds

B2: Mouse monoclonal antibody 1F9 (isotype IgG2b with a Kappa light chain) (antibody, V domains shown)
VH: B1 VH
VL: B1 VL
notes: also called mAb 1F9
binding result [2]: binds
binding result [3]: binds

Source: article PMC2323298 (PLoS Pathogens, 2007)
